Laboratory results: patent US7910344B2, “Proteins having tyrosinase activity” (Valtion teknillinen tutkimuskeskus, priority 2005, dated 2011)
Entries after “also recorded” stand apart in the source; their conditions may differ.

What was measured:
[1] = pH optimum of the tyrosinase by oxygen consumption measurements; type: biochemical; details: 15 mM L-Dopa, 4.3 μg purified tyrosinase
Description: pH optimum for the tyrosinase was studied by oxygen consumption measurements. Measurements were performed with a single channel oxygen meter (Precision sensing GmbH, Germany) containing fiber-optic oxygen minisensors with measurement range 0-100% oxygen. L-Dopa in 15 mM concentration, dissolved in 0.1 M sodium phosphate buffer, pH 7.0, was used as substrate. Reactions were carried out with 1.8 ml substrate solution and with 4.3 μg of the purified T. reesei tyrosinase. Three different buffers were used according to their buffer capacity. McIlvaine buffer was used within a pH range of 2-7, Tris-HCl buffer (50 mM) within a pH range 7-9 and borate buffer (12.5 mM) within a pH range of 8-9.5. The pH optimum of TYR2 is at 8-8.5. The enzyme has relatively high activity within a quite wide pH range, 5-9. […] In the measurements with Tris-HCl buffer in pH 8, 8.5 and 9.0 also a blank test without enzyme addition was performed to correct the effect of auto-oxidation in results. The pH optimum of the tyrosinase seemed to be dependant on the buffer.

[2] = Isoelectric focusing; type: physicochemical; details: purified TYR2, Coomassie Blue staining, pH range 3.5-9.5
Description: The isoelectric point (pI) of the enzyme from culture supernatant and purified enzyme was determined by isoelectric focusing within a pH range of 3.5-9.5 (Ampholine PAGplate 3.5-9.5 for IEF, Amersham Bioscience) on an LKB 2117 Multiphor II Electrophoresis System (LKB Pharmacia, Bromma, Sweden) according to manufacturer's instructions. Bands containing tyrosinase activity were visualized by staining the gel with 15 mM L-Dopa in 0.1 M sodium phosphate buffer (pH 7.0) and proteins by Coomassie Blue staining. […] Under native conditions in isoelectric focusing both the culture filtrate and the purified tyrosinase didn't show a clear band, when stained with L-Dopa, instead the activity was observed as a brown zone at about pH 9.

[3] = Stability of the enzyme at different pH-values (residual activity on L-Dopa); type: physicochemical; details: McIlvaine buffer, room temperature
Description: The stability of the enzyme at different pH-values was determined in McIlvaine, 50 mM Na2HPO4-25 mM citric acid, buffer by incubating the enzyme solution in different pH-values at room temperature. The residual tyrosinase activity was determined by measuring the activity of the enzyme solutions with L-Dopa as substrate.

[4] = tested on: salt soluble proteins (SSP) of chicken breast muscle myofibrils; experiment: Cross-linking of chicken myofibril salt soluble proteins followed by SDS-PAGE
Description: Changes in the molecular weight of the isolated salt soluble proteins (SSP) of chicken breast muscle myofibrils caused by TYR2 were analysed by SDS-PAGE. SPP were isolated according to Xiong and Brekke, 1989. For enzyme treatment SSP was suspended in 50 mM Na-phosphate buffer, pH 7, containing 0.6 M NaCl to the protein concentration of 3 mg/ml. 120 nkat or 240 nkat of TYR2 per gram of protein was added to the suspension. Control suspension was treated in a similar way but without enzyme addition. Reaction mixture was incubated at 30° C. Samples were drawn at the time points of 2 min, 1 hour, 3 hours and 24 hours. SDS-PAGE sample buffer was added and the samples were heated in a boiling water bath. 20 μg of protein from each sample was loaded onto 12% Tris-HCl polyacryl amide gels. SDS-PAGE was performed according to Laemmli, 1970.

[5] = tested on: α-casein; experiment: Cross-linking of model proteins followed by changes in MW on SDS-PAGE
Description: The cross-linking ability in model proteins of TYR2 was also analyzed by following changes in MW on SDS-PAGE. […] Details are given in examples 8 and 9.

[6] = tested on: chicken breast myofibrils; experiment: Gel forming of chicken myofibril matrix, storage modulus (G′), Bohlin Rheometer; details: 240 nkat TYR2/g protein, 25, 30 and 40° C., 3 hours, pH 6
Description: Ability of TYR2 to form cross-links in a chicken myofibril matrix was also investigated as a development of storage modulus (G′) measuring gel forming ability at low deformation. Measurements were carried out during heating at constant temperature using a Bohlin Rheometer. Chicken breast myofibrils were isolated according to Xiong and Brekke (1989) omitting EDTA and NaN3 from the isolation buffer. Isolated myofibrils were suspended in 50 mM Na-phosphate buffer, pH 6, supplemented with 0.30 M NaCl to the protein concentration of 40 mg/ml. Suspensions were treated with 240 nkat of TYR2 per gram of protein at 25° C., 30° C. and 40° C. for 3 hours. Control samples were treated in a similar way but without enzyme.

[7] = tested on: caseinate; experiment: Caseinate gel hardness by Texture Analyzer; details: 3% caseinate, 0.4% GDL, 20 nkat/g protein TYR2, 22 hours, room temperature
Description: 3% of commercial caseinate was mixed in water and 0.4% GDL (glucono-delta-lactone) and 20 nkat/g protein of TYR2 was added to the mixture. It was allowed to rest for 22 hours at room temperature, whereafter the gel hardness was measured by Texture Analyzer (FIG. 6).

[8] = Kieffer extensibility test of wheat dough; details: 1 and 10 nkat/g flour, resting 15-45 min, about 22° C.
Description: The influence of TYR2 on the large deformation rheology of wheat dough was investigated by using Kieffer extensibility rig (Stable Micro Systems, Ltd. United Kingdom). Dough extensibility and resistance to extension were measured as a function of enzyme dosage and dough's resting time.
Wheat flour was mixed with Farinograph (Brabender, Germany) using 12 g flour and 7.2 ml liquid phase (60%). Tyrosinase (1 and 10 nkat/g flour) was added to water right before mixing with flour. Mixing time was 4 min. Subsequently, dough was placed into a mould to produce approximately 10-12 test strings. The pressed mould was kept at room temperature for 15-45 min to allow stress relaxation. In the Kieffer tests, dough strings were centrally extended until the elastic limit of the string was exceeded and it ruptured. Maximum resistance Rmax, maximum extensibility Emax and extensibility Ex at Rmax were determined by recording the peak force and the distance at the maximum and at the extension limit. All dough preparations, enzyme treatments and measurements were performed at room temperature, approximately at 22° C.

B1: TYR2: extracellular tyrosinase of Trichoderma reesei encoded by tyr2, SEQ ID NO:4, 571 amino acids, C-terminally processed (protein, listed as Trichoderma reesei)
chain: MLLSASLSALALATVSLAQGTTHIPVTGVPVSPGAAVPLRQNINDLAKSGPQWDLYVQAMYNMSKMDSHDPYSFFQIAGIHGAPYIEYNKAGAKSGDGWLGYCPHGEDLFISWHRPYVLLFEQALVSVAKGIANSYPPSVRAKYQAAAASLRAPYWDWAADSSVPAVTVPQTLKINVPSGSSTKTVDYTNPLKTYYFPRMSLTGSYGEFTGGGNDHTVRCAASKQSYPATANSNLAARPYKSWILVTDTESGPQYDVLTNSQNFADFASTSGPGINVEQIHNAIHWDGACGSQFLAPDYSGFDPLFFMHHAQVDRMWAFWEAIMPSSPLFTASYKGQSRFNSKSGSTITPDSPLQPFYQANGKFHTSNTVKSIQGMGYSYQGIEYWQKSQAQIKSSVTTIINQLYGPNSGKKRNAPRDFLSDIVTDVENLIKTRYFAKISVNVTEVTVRPAEINVYVGGQKAGSLIVMKLPAEGTVNGGFTIDNPMQSILHGGLRNAVQAFTEDIEVEILSKDGQAIPLETVPSLSIDLEVANVTLPSALDQLPKYGQRSRHRAKAAQRGHRFAVPHIPPL
modifications: C-terminally processed
[1]
  pH range of relatively high activity: 5-9
[1]; McIlvaine, Tris-HCl, borate buffers
  pH optimum: 8-8.5
[2]
  Isoelectric point (bands in isoelectric focusing): ~9
[3]
  pH stability: good stability at neutral and alkaline pH
[4]; 120 or 240 nkat TYR2/g protein, 30° C., pH 7, up to 24 h
  Detectable electrophoretic changes of SSP: progressive disappearance of the myosin band of ˜200 kDa; also recorded: progressive disappearance of the band of ˜36 kDa; also recorded: appearance of large molecular weight protein products (>200 kDa)
[4]; chicken myofibril
  Cross-linking ability (changes in MW on SDS-PAGE): able to cross-link
[5]
  Cross-linking ability (changes in MW on SDS-PAGE): able to cross-link
[6]
  Storage modulus (G′), gel forming: greater increase in G′
[7]
  Hardness of caseinate gel: doubled the hardness of the caseinate gel
[8]
  Dough extensibility Ex at Rmax: decreased the dough extensibility Ex at Rmax
  Maximum resistance Rmax of dough: increased the maximum resistance Rmax of dough
